# Reference: the supplement of paper PMC11246515
# ± gives the standard deviation of the averaged measurements.
# Test: total protein half-life in vivo (active degradation + dilution); higher = more stable protein
# [1] = E. coli NCM3722 delta-clpP delta-lon delta-hslV, growth: N-lim chemostat, doubling time 6 h
# [2] = E. coli NCM3722 delta-clpP, growth: N-lim chemostat, doubling time 6 h
# [3] = E. coli NCM3722 delta-hslV, growth: N-lim chemostat, doubling time 6 h
# [4] = E. coli NCM3722 delta-lon, growth: N-lim chemostat, doubling time 6 h
# [5] = E. coli NCM3722 delta-smpB, growth: N-lim chemostat, doubling time 6 h
# [6] = wild type E. coli NCM3722, growth: C-lim chemostat, doubling time 3 h
# [7] = wild type E. coli NCM3722, growth: C-lim chemostat, doubling time 6 h
# [8] = wild type E. coli NCM3722, growth: C-lim chemostat, doubling time 12 h
# [9] = wild type E. coli NCM3722, growth: N-lim chemostat, doubling time 6 h
# [10] = wild type E. coli NCM3722, growth: N-lim chemostat, doubling time 12 h
# [11] = wild type E. coli NCM3722, growth: P-lim chemostat, doubling time 6 h
# [12] = wild type E. coli NCM3722, growth: P-lim chemostat, doubling time 12 h
Sequence,total protein half-life in vivo [1] [h],total protein half-life in vivo [2] [h],total protein half-life in vivo [3] [h],total protein half-life in vivo [4] [h],total protein half-life in vivo [5] [h],total protein half-life in vivo [6] [h],total protein half-life in vivo [7] [h],total protein half-life in vivo [8] [h],total protein half-life in vivo [9] [h],total protein half-life in vivo [10] [h],total protein half-life in vivo [11] [h],total protein half-life in vivo [12] [h]
MSKLLDRFRYFKQKGETFADGHGQVMHSNRDWEDSYRQRWQFDKIVRSTHGVNCTGSCSWKIYVKNGLVTWEIQQTDYPRTRPDLPNHEPRGCPRGASYSWYLYSANRLKYPLIRKRLIELWREALKQHSDPVLAWASIMNDPQKCLSYKQVRGRGGFIRSNWQELNQLIAAANVWTIKTYGPDRVAGFSPIPAMSMVSYAAGTRYLSLLGGTCLSFYDWYCDLPPASPMTWGEQTDVPESADWYNSSYIIAWGSNVPQTRTPDAHFFTEVRYKGTKTIAITPDYSEVAKLCDQWLAPKQGTDSALAMAMGHVILKEFHLDNPSDYFINYCRRYSDMPMLVMLEPRDDGSYVPGRMIRASDLVDGLGESNNPQWKTVAVNTAGELVVPNGSIGFRWGEKGKWNLESIAAGTETELSLTLLGQHDAVAGVAFPYFGGIENPHFRSVKHNPVLVRQLPVKNLTLVDGNTCPVVSVYDLVLANYGLDRGLEDENSAKDYAEIKPYTPAWGEQITGVPRQYIETIAREFADTAHKTHGRSMIILGAGVNHWYHMDMNYRGMINMLIFCGCVGQSGGGWAHYVGQEKLRPQTGWLPLAFALDWNRPPRQMNSTSFFYNHSSQWRYEKVSAQELLSPLADASKYSGHLIDFNVRAERMGWLPSAPQLGRNPLGIKAEADKAGLSPTEFTAQALKSGDLRMACEQPDSSSNHPRNLFVWRSNLLGSSGKGHEYMQKYLLGTESGIQGEELGASDGIKPEEVEWQTAAIEGKLDLLVTLDFRMSSTCLFSDIVLPTATWYEKDDMNTSDMHPFIHPLSAAVDPAWESRSDWEIYKGIAKAFSQVCVGHLGKETDVVLQPLLHDSPAELSQPCEVLDWRKGECDLIPGKTAPNIVAVERDYPATYERFTSLGPLMDKLGNGGKGISWNTQDEIDFLGKLNYTKRDGPAQGRPLIDTAIDASEVILALAPETNGHVAVKAWQALGEITGREHTHLALHKEDEKIRFRDIQAQPRKIISSPTWSGLESDHVSYNAGYTNVHELIPWRTLSGRQQLYQDHPWMRAFGESLVAYRPPIDTRSVSEMRQIPPNGFPEKALNFLTPHQKWGIHSTYSENLLMLTLSRGGPIVWISETDARELTIVDNDWVEVFNANGALTARAVVSQRVPPGMTMMYHAQERIMNIPGSEVTGMRGGIHNSVTRVCPKPTHMIGGYAQLAWGFNYYGTVGSNRDEFIMIRKMKNVNWLDDEGRDQVQEAKK,6.1 ± 1,5.33 ± 0.2,6.53 ± 0.28,6.11 ± 1.5,5.8 ± 0.67,2.8 ± 0.2,6.25 ± 1.3,11.5 ± 1.3,5.956 ± 0.043,12.43 ± 0.018,5.7 ± 0.32,11.4 ± 0.43
MSKNERMVGISRRTLVKSTAIGSLALAAGGFSLPFTLRNAAAAVQQAREKVVWGACSVNCGSRCALRLHVKDNEVTWVETDNTGSDEYGNHQVRACLRGRSIRRRINHPDRLNYPMKRVGKRGEGKFERISWDEALDTIASSLKKTVEQYGNEAVYIQYSSGIVGGNMTRSSPSASAVKRLMNCYGGSLNQYGSYSTAQISCAMPYTYGSNDGNSTTDIENSKLVVMFGNNPAETRMSGGGITYLLEKAREKSNAKMIVIDPRYTDTAAGREDEWLPIRPGTDAALVAGIAWVLINENLVDQPFLDKYCVGYDEKTLPADAPKNGHYKAYILGEGDDKTAKTPQWASQITGIPEDRIIKLAREIGTAKPAYICQGWGPQRQANGELTARAIAMLPILTGNVGISGGNSGARESTYTITIERLPVLDNPVKTSISCFSWTDAIDHGPQMTAIRDGVRGKDKLDVPIKFIWNYAGNTLVNQHSDINKTHEILQDESKCEMIVVIENFMTSSAKYADILLPDLMTVEQEDIIPNDYAGNMGYLIFLQPVTSEKFERKPIYWILSEVAKRLGPDVYQKFTEGRTQEQWLQHLYAKMLAKDPALPSYDELKKMGIYKRKDPNGHFVAYKAFRDDPEANPLKTPSGKIEIYSSRLAEIARTWELEKDEVISPLPVYASTFEGWNSPERRTFPLQLFGFHYKSRTHSTYGNIDLLKAACRQEVWINPIDAQKRGIANGDMVRVFNHRGEVRLPAKVTPRILPGVSAMGQGAWHEANMSGDKIDHGGCVNTLTTLRPSPLAKGNPQHTNLVEIEKI,5.78,,,,,,,,,,,
MSKNYHIAVLPGDGIGPEVMTQALKVLDAVRNRFAMRITTSHYDVGGAAIDNHGQPLPPATVEGCEQADAVLFGSVGGPKWEHLPPDQQPERGALLPLRKHFKLFSNLRPAKLYQGLEAFCPLRADIAANGFDILCVRELTGGIYFGQPKGREGSGQYEKAFDTEVYHRFEIERIARIAFESARKRRHKVTSIDKANVLQSSILWREIVNEIATEYPDVELAHMYIDNATMQLIKDPSQFDVLLCSNLFGDILSDECAMITGSMGMLPSASLNEQGFGLYEPAGGSAPDIAGKNIANPIAQILSLALLLRYSLDADDAACAIERAINRALEEGIRTGDLARGAAAVSTDEMGDIIARYVAEGV,3.45 ± 0.8,2.56 ± 0.42,2.43 ± 0.12,2.96 ± 0.089,2.527 ± 0.018,3.23 ± 0.31,5.057 ± 0.042,8.72 ± 1.7,2.54 ± 0.19,3.52 ± 0.11,5.34 ± 0.7,9.08 ± 0.2
MSKQSQHVLIALPHPLLHLVSLGLVSFIFTLFSLELSQFGTQLAPLWFPTSIMMVAFYRHAGRMWPGIALSCSLGNIAASILLFSTSSLNMTWTTINIVEAVVGAVLLRKLLPWYNPLQNLADWLRLALGSAIVPPLLGGVLVVLLTPGDDPLRAFLIWVLSESIGALALVPLGLLFKPHYLLRHRNPRLLFESLLTLAITLTLSWLSMLYLPWPFTFIIVLLMWSAVRLPRMEAFLIFLTTVMMVSLMMAADPSLLATPRTYLMSHMPWLPFLLILLPANIMTMVMYAFRAERKHISESETHFRNAMEYSAIGMALVGTEGQWLQTNKALCQFLGYSQEELRGLTFQQLTWPEDLNKDLQQVEKLISGEINTYSMEKRYYNRNGDVVWALLAVSLVRHTDGTPLYFIAQIEDINELKRTEQVNQQLMERITLANEAGGIGIWEWELKPNIFSWDKRMFELYEIPPHIKPNWQVWYECVLPEDRQHAEKVIRDSLQSRSPFKLEFRITVKDGIRHIRALANRVLNKEGEVERLLGINMDMTEVKQLNEALFQEKERLHITLDSIGEAVVCIDMAMKITFMNPVAEKMSGWTQEEALGVPLLTVLHITFGDNGPLMENIYSADTSRSAIEQDVVLHCRSGGSYDVHYSITPLSTLDGSNIGSVLVIQDVTESRKMLRQLSYSASHDALTHLANRASFEKQLRILLQTVNSTHQRHALVFIDLDRFKAVNDSAGHAAGDALLRELASLMLSMLRSSDVLARLGGDEFGLLLPDCNVESARFIATRIISAVNDYHFIWEGRVHRVGASAGITLIDDNNHQAAEVMSQADIACYASKNGGRGRVTVYEPQQAAAHSERAAMSLDEQWRMIKENQLMMLAHGVASPRIPEARNLWLISLKLWSCEGEIIDEQTFRRSFSDPALSHALDRRVFHEFFQQAAKAVASKGISISLPLSVAGLSSATLVNDLLEQLENSPLPPRLLHLIIPAEAILDHAESVQKLRLAGCRIVLSQVGRDLQIFNSLKANMADYLLLDGELCANVQGNLMDEMLITIIQGHAQRLGMKTIAGPVVLPLVMDTLSGIGVDLIYGEVIADAQPLDLLVNSSYFAIN,4.93 ± 0.2,,,,,,,9.36,,,1.53,
MSKRRYLTGKEVQAMMQAVCYGATGARDYCLILLAYRHGMRISELLDLHYQDLDLNEGRINIRRLKNGFSTVHPLRFDEREAVERWTQERANWKGADRTDAIFISRRGSRLSRQQAYRIIRDAGIEAGTVTQTHPHMLRHACGYELAERGADTRLIQDYLGHRNIRHTVRYTASNAARFAGLWERNNLINEKLKREEV [P0ADH7],4.85 ± 0.3,,,,1.18,0.333,,,,,,
MSKRTFAVILTLLCSFCIGQALAGGIVLQRTRVIYDASRKEAALPVANKGAETPYLLQSWVDNIDGKSRAPFIITPPLFRLEAGDDSSLRIIKTADNLPENKESLFYINVRAIPAKKKSDDVNANELTLVFKTRIKMFYRPAHLKGRVNDAWKSLEFKRSDHSLNIYNPTEYYVVFAGLAVDKTDLTSKIEYIAPGEHKQLPLPASGGKNVKWAAINDYGGSSGTETRPLQ,,,6.17,,,,,,,,,
MSKSENLYSAARELIPGGVNSPVRAFTGVGGTPLFIEKADGAYLYDVDGKAYIDYVGSWGPMVLGHNHPAIRNAVIEAAERGLSFGAPTEMEVKMAQLVTELVPTMDMVRMVNSGTEATMSAIRLARGFTGRDKIIKFEGCYHGHADCLLVKAGSGALTLGQPNSPGVPADFAKYTLTCTYNDLASVRAAFEQYPQEIACIIVEPVAGNMNCVPPLPEFLPGLRALCDEFGALLIIDEVMTGFRVALAGAQDYYGVVPDLTCLGKIIGGGMPVGAFGGRRDVMDALAPTGPVYQAGTLSGNPIAMAAGFACLNEVAQPGVHETLDELTTRLAEGLLEAAEEAGIPLVVNHVGGMFGIFFTDAESVTCYQDVMACDVERFKRFFHMMLDEGVYLAPSAFEAGFMSVAHSMEDINNTIDAARRVFAKL,6.35 ± 2.3,4.99 ± 0.35,5 ± 0.21,5.33 ± 0.43,3.93 ± 0.1,3.45 ± 0.48,7.43 ± 0.21,11.3 ± 1.3,4.57 ± 0.2,7.897 ± 0.015,5.51 ± 0.059,12.6 ± 0.035
